According to paper PMC4284093 (Journal of molecular biology, 2014):

Tests used:
[1] = target: DEBS3 (6-deoxyerythronolide B synthase 3; modules 5 and 6 and the TE domain) (Saccharopolyspora erythraea) (UniProt Q03133); experiment: SEC-SAXS
[2] = target: KSAT3+KR3 (module 3 of 6-deoxyerythronolide B synthase without the ACP domain) (Saccharopolyspora erythraea); experiment: SEC
[3] = target: KSAT3+KR3 (module 3 of 6-deoxyerythronolide B synthase without the ACP domain) (Saccharopolyspora erythraea); experiment: SEC-SAXS
[4] = target: M3+TE (module 3 of 6-deoxyerythronolide B synthase fused to the TE domain) (Saccharopolyspora erythraea); experiment: SEC-SAXS
SEC-SAXS = target: the molecule itself; experiment: SEC-SAXS

Molecule: DEBS3 (6-deoxyerythronolide B synthase 3; modules 5 and 6 and the TE domain), Q03133 1-3172
- stoichiometry N [1]: 2

Molecule: KSAT3+KR3 (module 3 of 6-deoxyerythronolide B synthase without the ACP domain) (domain or fragment)
- stoichiometry N [2]: 2
- stoichiometry N [3]: 2

Molecule: M3+TE (module 3 of 6-deoxyerythronolide B synthase fused to the TE domain) (enzyme)
- stoichiometry N [4]: 2

B1: TE (terminal thioesterase domain of 6-deoxyerythronolide B synthase) (domain or fragment, Saccharopolyspora erythraea)
chain: QLDSGTPAREASSALRDGYRQAGVSGRVRSYLDLLAGLSDFREHFDGSDGFSLDLVDMADGPGEVTVICCAGTAAISGPHEFTRLAGALRGIAPVRAVPQPGYEEGEPLPSSMAAVAAVQADAVIRTQGDKPFVVAGHSAGALMAYALATELLDRGHPPRGVVLIDVYPPGHQDAMNAWLEELTATLFDRETVRMDDTRLTALGAYDRLTGQWRPRETGLPTLLVSAGEPMGPWPDDSWKPTWPFEHDTVAVPGDHFTMVQEHADAIARHIDAWLGGGNS
- stoichiometry N (SEC-SAXS): 2
